The values below are quoted from earlier work in doi:10.1101/2022.06.23.497301.

The data set has as its target Asp96 (UniProt position 109, PLLLLDLALLV). The settings on record: resting (ground, closed) state of bacteriorhodopsin.

Regarding “Bacteriorhodopsin (Halobacterium salinarum)”, the pKa result is “∼12.0”.
